Literature values in patent US20040126825A1, “Methods of screening and using inhibitors of angiogenesis” (Allergan, Inc, priority 2001, published 2004).

Tested on: MMP-2
Conditions: cultured breast carcinoma cells; Deryugina et al. 2001

## vitronectin: a specific ligand of αvβ3
  activation of MMP-2 (conversion from pro-form to active form): inhibited
